This series deals with the molecule itself. Description: SEC; Superdex 200 10/300 GL, room temperature, 50 mM NaH2PO4, 150 mM NaCl, pH 7.0; calibrated with globular proteins. A general note: SEC sorts molecules by how far they enter the pores of the column.

B1: three pseudomurein binding motifs with C-terminal ten-Histidine tag (3P-His10), the PMB domain of MTH719 (domain or fragment, Methanothermobacter thermautotrophicus)
chain: MGGGFAASVKISVRQLTDAASWVRAYYGRYGRLPGKVTISGHGYSMAQFLYLLCRATVNINAGNVAPISVKSVASAPASGGWYRHGRLYRSSYVRVAKNILSFIDSRGRAPNYAITGLGRIPFQRLVYMYSKIIKFYGTNKRLPNYVTI
notes: short N-terminal peptide region resulting from the cloning procedure (LIC); also called PMB domain 3P-His10; 3P-His10 PMB domain; source: E. coli Rosetta gami 2 (pBADcLIC, arabinose induced), purified (Ni-NTA); not shown: His10, C-terminal, kept
For B1, the binding result is reported as “binds”.

These data come from article PMC3124540, “A Minimum of Three Motifs Is Essential for Optimal Binding of Pseudomurein Cell Wall-Binding Domain of Methanothermobacter thermautotrophicus” (PLoS ONE, 2011).
